Test results from patent US20170066836A1 (NATIONAL UNIVERSITY CORPORATION KOCHI UNIVERSITY, published 2017).

Columns and labels:
[1] = target: T1, human Glypican-1 forcibly expressed on CT01 chicken T-lymphoblast-like cells (CT01-GPC-1#42) (human, UniProt P35052 24-530); experiment: FACS: clone as primary antibody, FITC-labeled goat anti-mouse IgG as secondary; CT01 cells forcibly expressing human Glypican-1 (CT01-GPC-1#42), Glypican-1-negative CT01 cells as negative cells
T1 sequence: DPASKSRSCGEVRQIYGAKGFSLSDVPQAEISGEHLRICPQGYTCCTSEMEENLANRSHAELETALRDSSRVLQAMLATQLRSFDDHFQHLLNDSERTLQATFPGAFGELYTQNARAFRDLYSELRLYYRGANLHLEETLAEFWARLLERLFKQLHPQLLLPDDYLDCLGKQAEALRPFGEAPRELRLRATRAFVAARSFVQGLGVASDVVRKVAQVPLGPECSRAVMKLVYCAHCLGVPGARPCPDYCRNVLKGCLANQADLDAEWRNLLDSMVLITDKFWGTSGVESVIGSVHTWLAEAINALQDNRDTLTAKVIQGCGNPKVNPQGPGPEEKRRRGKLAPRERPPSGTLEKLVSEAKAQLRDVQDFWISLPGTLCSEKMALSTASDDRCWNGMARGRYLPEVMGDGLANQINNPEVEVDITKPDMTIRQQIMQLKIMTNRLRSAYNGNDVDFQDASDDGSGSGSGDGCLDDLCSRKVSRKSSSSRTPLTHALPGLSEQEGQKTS
Description: In carrying out FACS analysis using an antibody, a chicken T-lymphoblast-like cell strain (CT01 cell) was used as a Glypican-1 negative cell and a CT01 cell (CT01-GPC-1#42) forcibly expressing human Glypican-1 was used as a Glypican-1 positive cell. Various clones of the developed antibodies were used as primary antibodies, a FITC-labeled Goat anti-Mouse IgG (H+L chain specific) (Southern Biotech) was used as a secondary antibody, measurement was carried out using FACS Cantoll (BD), and the measurement data was analyzed using Flow Jo (Tree Star). As a result, twenty types of clones were successfully developed as antibodies that can stain Glypican-1 with FACS.

[2] = target: T2, mouse Glypican-1 expressed on 293 cells (mouse, UniProt Q9QZF2 24-529); experiment: FACS on 293 cells forcibly expressing mouse GPC1
T2 construct: whole, on cells; also called mouse GPC-1; mouse GPC1
T2 sequence (looked up): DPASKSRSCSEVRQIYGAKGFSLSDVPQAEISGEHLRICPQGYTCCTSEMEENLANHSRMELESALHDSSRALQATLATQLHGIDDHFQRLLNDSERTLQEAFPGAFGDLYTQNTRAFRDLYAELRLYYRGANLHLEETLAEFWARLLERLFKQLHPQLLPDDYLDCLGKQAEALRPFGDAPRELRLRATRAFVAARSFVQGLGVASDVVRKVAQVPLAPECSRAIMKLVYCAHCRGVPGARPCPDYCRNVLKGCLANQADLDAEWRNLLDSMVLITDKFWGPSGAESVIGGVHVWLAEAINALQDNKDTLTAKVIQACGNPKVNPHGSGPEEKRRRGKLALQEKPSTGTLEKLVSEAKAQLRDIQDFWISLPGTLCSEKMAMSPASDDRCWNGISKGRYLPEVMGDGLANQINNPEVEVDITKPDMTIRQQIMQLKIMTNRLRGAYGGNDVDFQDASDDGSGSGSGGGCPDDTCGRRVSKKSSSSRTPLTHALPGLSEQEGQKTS
Description: A mouse Glypican-1 expression vector or an empty vector was transfected to the 293 cell using lipofectamine 2000 and the reactivity with various clones of an anti-Glypican-1 antibody was analyzed by FACS.

[3] = target: T3, human Glypican-3 expressed on 293 cells (pFLAG-CMV3 hGPC3) (human, UniProt P51654 25-554); experiment: FACS on 293 cells transfected with pFLAG-CMV3 hGPC3
T3 construct: whole, on cells; FLAG-tagged through the vector; also called human GPC-3
T3 sequence (P51654 25-554 limits assumed): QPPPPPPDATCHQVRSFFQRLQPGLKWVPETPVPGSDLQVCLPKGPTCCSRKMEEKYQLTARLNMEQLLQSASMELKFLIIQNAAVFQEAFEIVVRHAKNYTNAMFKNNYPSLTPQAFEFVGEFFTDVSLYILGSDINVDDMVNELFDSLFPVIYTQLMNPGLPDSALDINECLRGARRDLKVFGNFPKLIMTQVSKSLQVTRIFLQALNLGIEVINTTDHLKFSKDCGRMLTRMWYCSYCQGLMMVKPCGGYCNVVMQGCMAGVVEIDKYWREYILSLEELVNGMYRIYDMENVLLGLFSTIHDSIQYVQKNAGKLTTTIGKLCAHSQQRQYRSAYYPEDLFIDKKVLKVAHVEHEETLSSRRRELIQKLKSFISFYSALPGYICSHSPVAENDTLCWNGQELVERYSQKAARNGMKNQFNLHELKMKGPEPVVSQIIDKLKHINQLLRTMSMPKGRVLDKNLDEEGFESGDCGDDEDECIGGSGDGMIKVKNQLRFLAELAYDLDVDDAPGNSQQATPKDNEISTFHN
Description: Subsequently, a characteristic of various anti-Glypican-1 antibodies that reacted with Glypican-1, but not with Glypican-3 was determined to prepare a chimeric protein expression vector having an amino acid sequence of the 430th or more position of Glypican-1 substituted with that of Glypican-3 (FIG. 17). Various expression vectors were transfected into the 293 cell and the reactivity with various anti-Glypican-1 antibodies was analyzed by FACS. Consequently, since the reactivity in FACS is not recognized in three clones #17(2-60), #2(1-5), and #10(1-57), it is believed that the epitope region in these clones is present in the 430th to the 530th corresponding to an extracellular region of Glypican-1 (FIG. 18).

[4] = target: T4, recombinant Glypican-1 (R&D systems 4519-GP-050) (Homo sapiens (Human), UniProt P35052 24-530); experiment: Biacore 3000 (SPR): antibody captured on rabbit anti-mouse IgG on a CM5 chip, recombinant Glypican-1 added at various concentrations; BIAevaluation 4.1
T4 construct: Bought protein
T4 sequence: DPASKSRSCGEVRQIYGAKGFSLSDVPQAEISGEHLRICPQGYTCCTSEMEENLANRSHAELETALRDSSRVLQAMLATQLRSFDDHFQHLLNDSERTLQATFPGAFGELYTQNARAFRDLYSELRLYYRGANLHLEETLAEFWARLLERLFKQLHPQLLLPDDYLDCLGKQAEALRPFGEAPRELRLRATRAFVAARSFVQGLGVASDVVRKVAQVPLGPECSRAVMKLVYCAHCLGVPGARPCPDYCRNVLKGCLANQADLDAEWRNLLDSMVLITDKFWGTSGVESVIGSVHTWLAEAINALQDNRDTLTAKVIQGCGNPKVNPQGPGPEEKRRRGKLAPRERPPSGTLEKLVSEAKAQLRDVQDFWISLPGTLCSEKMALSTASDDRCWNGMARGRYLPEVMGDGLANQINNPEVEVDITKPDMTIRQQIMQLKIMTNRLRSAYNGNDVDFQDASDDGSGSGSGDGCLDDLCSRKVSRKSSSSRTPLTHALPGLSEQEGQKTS
Description: (§1) Affinity analysis of an anti-Glypican-1 antibody was measured using Biacore 3000. A rabbit anti-mouse IgG polyclonal antibody of the Mouse Antibody Capture Kit was solid-phased to a CM5 sensor tip, various anti-Glypican1 antibody clones were captured, recombinant Glypican-1 (R&D systems 4519-GP-050) was added at various concentrations as a ligand, and binding and dissociation were monitored. The obtained sensorgram was analyzed using BIAevaluation 4.1 software and a KD value was calculated (FIG. 12).

[5] = target: T4, recombinant Glypican-1 (R&D systems …); experiment: SPR (Biacore 3000): antibody captured by rabbit anti-mouse IgG on a CM5 chip, recombinant Glypican-1 added at various concentrations
Description: as §1

B1: anti-GPC-1 antibody 1-4 (antibody, V domains shown)
VH: AVTLEESGGGLQTPGGGLSLVCKASGFDFRNNGMAWVRQAPGKGLEWVAGISGTAYAVYGAAVKGRATISRDNGQSTVRLQLNNLRAEDTATYYCAKTVGSCGIDCHTTGFIDGWGHGTEVIVST
VL: ALTQPSSVSANPGETVKITCSGGSYSYGWFQQKSPGSAPVTVIYWDDERPSGIPSRFSGSKSGSTGTLTITGVQAEDEAVYFCGSRDSSYVGIFGAGTTLTV
notes: detection was with anti-mouse IgG
B1: binds [1].

B2: anti-GPC-1 antibody 1-5 (antibody, V domains shown)
VH: AVTLDESGGGLQTPGGALSLVCKASGFKFRSYDMYWVRQAPGKGLEYVAGIINTGRETYYGAAVKGRATISRDNGRSTVRLQLNNLRAEDTGTYFCAKGAAWNYAGSIDAWGHGTEVIVST
VL: ALTQPASVSANPGETVKITCSGGSGSYGWYQQKSPGSAPVTVIYGDNKRPTDISSRFSGSTSGSTNTLTITGVQAEDEAVYFCGSRDNTYAGIFGAGTTLTV
notes: detection was with anti-mouse IgG and the control was mouse IgG2a; also called #2; clone 1-5
B2 was tested, and the binding result [2] was “binds”, the binding result [3] was “no binding” and the Kd [4] was 20.9 nM. It also gave a koff [4] of 0.000951 s⁻¹ and a kon [4] of 45500 M⁻¹ s⁻¹.

B3: anti-GPC-1 antibody 1-12 (antibody, V domains shown)
VH: AVTLDESGGGLQTPGRALSLVCKASGFTFSRYAMYWVRQAPGKGLEFVAGIGNTGRYTGYGSAVKGRATISRDSGQSTVRLQLNNLRAEDTGNYYCAKSVSPYCCDAADIDAWGHGTEVIVST
VL: ALTQPASVSANPGETVKITCSGGSSGYAYGWYQQKSPGSAPVTLLYSNNNRPSDIPSRFSGSKSGSTATLTITGVQAEDEAVYFCGSVDSSSYAGIFGAGTTLTV
notes: it was captured and detected with anti-mouse IgG and the control was mouse IgG2a; also called #4; clone 1-12
B3 was tested, and the Kd [5] was 2.61 nM, the binding result [2] was “binds” and the binding result [3] was “no binding”. The koff [4] was 0.000488 s⁻¹ and the kon [4] was 187000 M⁻¹ s⁻¹.

B4: anti-GPC-1 antibody 1-57 (antibody, V domains shown)
VH: AVTLDESGGGLQTPGGGLSLVCKGSGFTLTDRGMHWVRQAPGKGLEWVAAISSSGRFTLYAPAVTGRATISRDNGQSTVRLQLNNLRAEDTGTYYCARGNAGGWWADGGEIDAWGHGTEVIVST
VL: ALTQPSSVSANPGETVKITCSGGSGSYGWFQQKSPGSAPVTVIYSNNKRPTDIPSRFSGSKSGSTNTLTITGVQADDEAVYFCGSADSSYIGIFGAGTTLTV
notes: detection was with anti-mouse IgG and the control was mouse IgG2a; also called #10; clone 1-57
In the case of B4, the binding result [2] is reported as “binds”, the binding result [3] is reported as “no binding” and the Kd [4] is reported as 176 nM. The koff [4] was 0.00213 s⁻¹ and the kon [4] was 12100 M⁻¹ s⁻¹.

B5: anti-GPC-1 antibody 1-10 (antibody, V domains shown)
VH: AVTLDESGGGLQTPGGGLSLVCKASGFTFSGYDMMWVRQAPGKGLEWVGQISSTGSIQKYGAAVKGRATISRDNGQSTMRLQLNDLRAEDTGTYFCAKSAYGYSSSGPEDIDAWGHGTEVIVST
VL: ALTQPASVSANLGGTVKITCSGGSSDAYGWYQQKSPDSAPVTVIYGNNNRPSDIPSRFSGSTSGSTNTLTITGVQADDEAVYFCGSYDGSTDSDGIFGAGTTLTV
notes: as for B1
B5: binds [1].

B6: anti-GPC-1 antibody 2-60 (antibody, V domains shown)
VH: AVTLDESGGGLQTPGGALSLVCKASGFTYSSYAMGWVRQAPGKGLEFVASISSDGSDTAYGSAVKGRATISRDNRQSTLRLQLNNLRAEDTGTYYCAKSYRCSWNCWDYAAKIDAWGHGTEVTVS
VL: VALTQPASVSANPGETVKITCSGSGSYTGSYYYGWYQQKSPGSAPVTVIYNNNKRPSDIPSRFSGSTSGSTATLTITGVQAEDEAVYFCGSYDRSSDSGIFGAGTTLTV
notes: detection was with anti-mouse IgG and the control was mouse IgG2a; also called #17; clone 2-60
In the case of B6, the binding result [3] is reported as “no binding”, the Kd [4] is reported as 15.2 nM and the koff [4] is reported as 0.00105 s⁻¹. It also gave a kon [4] of 69100 M⁻¹ s⁻¹.

B7: anti-GPC-1 antibody 2-63 (antibody, V domains shown)
VH: AVTLDESGGGLQTPGGTLSLVCKASGFDFSSVNMFWVRQAPGKGLEFVAGIDNDATFTLYGSAVKGRASISRDNGQSTVRLQLNNLRAEDTGTYYCAKTLCSTTWGCGAYSAGDIDAWGHGTEVTVST
VL: ALTQPSSVSANPGETVKITCSGGGSSGYGYYGWYQQKSPGSAPVTVIYNNNKRPTDIPSRFSGALSGSTATLTITGVQVEDEAVYYCGSRDNTYVGIFGAGTTLTV
notes: detection was with anti-mouse IgG and the control was mouse IgG2a; also called #18; clone 2-63
Work on B7 yielded a Kd [4] of 6.19 nM, a koff [4] of 0.000848 s⁻¹ and a kon [4] of 137000 M⁻¹ s⁻¹.

B8: anti-GPC-1 antibody 1-18 (antibody, V domains shown)
VH: AVTLDESGGGLQTPGGALSLVCKASGFTFSSYTMFWVRQAPGKGLEFVAGIDNTGIYTPYGSAVKGRATISRDNGQSTVRLQLNNLRAEDTGTYYCAKYADACTGPWCGSSAYTGSTIDAWGHGTEVTVST
VL: ALTQPSSVSANPGETVKLTCSGGGSYYGWYQQKSPGSAPVTVIYENTERPSNIPSRFSGSTSGSTSTLTIIGVQADDEAVYFCGGYDSSTDAGIFGAGTTLTV
notes: as for B1
B8: binds [1].

B9: anti-GPC-1 antibody 1-30 (antibody, V domains shown)
VH: AVTLDESGGGLQTPGGGLSLVCKASGFTLNSYDMLWVRQAPGKGLEFVAAISIASGSSYAPAVKGRATISRDNGQSTVRLQLNNLRAEDTGTYYCARGGTGYYYSDATGQIDAWGHGTEVIVST
VL: ALTQPSSVSANPGETVKITCSGGSSGYGYGWYQQKAPGSAPVTVIYSNNQRPSNIPSRFSGSTSGSTSTLTITGVQADDEAVYYCGSTDSSTYDGIFGAGTTLTV
notes: as for B1
B9: binds [1].

B10: anti-GPC-1 antibody 1-50 (antibody, V domains shown)
VH: AVTLDESGGGLQTPGGALSLVCKASGFTFNNNGMSWVRQAPGKGLEWVAGISGAGYSNYAPAVKGRATISRDNGQSTVRLQLNSLRAEDTGTYFCAKVASSCGNECYTSGFIDAWGHGTEVIVST
VL: ALTQPASVSANLGGTVKITCSGGSGSYGWYQQKSPGSAPVTVIFWDNERPSDIPSRFSGSKSGSTHTLTITGVQAEDEAVYFCGSRDRMYDGIFGAGTTLTV
notes: as for B1
B10: binds [1].

B11: anti-GPC-1 antibody 1-28 (antibody, V domains shown)
VH: AVTLDESGGGLQTPGRALSLVCKASGFTFSSYTMFWVRQAPGKGLEFVAGIDNTGIYTPYGSAVKGRATISRDNGQSTVRLQLNNLRAEDTGTYYCAKYADACTGPWCGSSAYTASTIDAWGHGTEVIVST
VL: ALTQPASVSANLGGTVEITCSGGGNDYGWYQQKSPGSAPVTVIYDSINRPSNIPSRFSGSTSGSTATLTITGVQADDEAVYFCGSYDSSYVGIFGAGTTLTV
notes: detection was with anti-mouse IgG and the control was mouse IgG2a; also called #7; clone 1-28
B11: binds [2]; no binding [3].

B12: anti-GPC-1 antibody 2-70 (antibody, V domains shown)
VH: AVTLDESGGGLQTPGGALSLVCKASGLSTFSDRGMHWVRQAPGKGLEFVAAISSSGRFTLYGAAVKGRATISRDNGQSTVRLQLNDLRAEDTAIYYCARGTTTGWWADAGEIDAWGHGTEVIVST
VL: ALTQPAFMSANPGETVKITCSGGSYSAYGWFQQKSPGSAPVTLIYNDNIRPSDISSRFSGSKSGSTATLTITGVQADDEAVYFCGNEDRNNTATFGAGTTLTV
notes: detection was with anti-mouse IgG and the control was mouse IgG2a; also called #19; clone 2-70
B12: no binding [3].
